This series deals with human polyclonal IgG.

B1: membrane-bound IdeS (IdeS-tm) (protein)
chain 1: DSFSANQEIRYSEVTPYHVTSVWTKGVTPPAKFTQGEDVFHAPYVANQGWYDITKTFNGKDDLLCGAATAGNMLHWWFDQNKEKIEAYLKKHPDKQKIMFGDQELLDVRKVINTKGDQTNSELFNYFRDKAFPGLSARRIGVMPDLVLDMFINGYYLNVYKTQTTDVNRTYQEKDRRGGIFDAVFTRGDQSKLLTSRHDFKEKNLKEISDLIKKELTEGKALGLSHTYANVRINHVINLWGADFDSNGNLKAIYVTDSDSNASIGMKKYFVGVNSAGKVAISAKEIKEDNIGAQVLGLFTLSTGQDSWNQTN
chain 2: not shown
B1: the “cleavage of IgG, SDS-PAGE with Coomassie stain and anti-human Fc blot” value was “Cleaved Ig appeared within 5 min and increased over time”.

B2: secreted IdeS (IdeS-sec) (protein)
chain: DSFSANQEIRYSEVTPYHVTSVWTKGVTPPAKFTQGEDVFHAPYVANQGWYDITKTFNGKDDLLCGAATAGNMLHWWFDQNKEKIEAYLKKHPDKQKIMFGDQELLDVRKVINTKGDQTNSELFNYFRDKAFPGLSARRIGVMPDLVLDMFINGYYLNVYKTQTTDVNRTYQEKDRRGGIFDAVFTRGDQSKLLTSRHDFKEKNLKEISDLIKKELTEGKALGLSHTYANVRINHVINLWGADFDSNGNLKAIYVTDSDSNASIGMKKYFVGVNSAGKVAISAKEIKEDNIGAQVLGLFTLSTGQDSWNQTN
As for B2, the “cleavage ELISA” value is “IdeS-sec efficiently cleaved human polyclonal IgG at different time points”.

The values above are taken from patent US20220218748.
